Laboratory results reported in the DeepSol protein solubility set.

Assay: soluble on expression in E. coli; label from the status in PepcDB or PDB records

Row | Sequence | soluble on expression in E. coli
1 | MTETIKCIGCGVEIQTEDKNEVGYAPASSLEKEQVICQRCFRLKHYNEIQDVSLTDDDFLRILNGIGKSDALVVKIVDIFDFNGSWLPGLHRFVGNNKVLLVGNKADLIPKSVKHDKVKHWMRYSAKQLGLKPEDVFLISAAKGQGIAELADAIEYYRGGKDVYVVGCTNVGKSTFINRMIKEFSDETENVITTSHFPGTTLDLIDIPLDEESSLYDTPGIINHHQMAHYVGKQSLKLITPTKEIKPMVFQLNEEQTLFFSGLARFDYVSGGRRAFTCHFSNRLTIHRTKLEKADELYKNHAGDLLSPPTPEELENMPELVKYEFNIREPKTDVVFSGLGWVTVNEPGAKIVAHVPKGVSVSLRKSLILEHHHHHH | not soluble
2 | MKYTEIMVRYGELSTKGKNRKTFIMQLAQNVKRALADFPALKIHADRDRMHILLNGEDSEEVIPKLSKVFGIQNFSPSIRIEKEMPAIRAMVQEVVREVYTPGKTFKITAKRSDHSFELDSNGLNQELGGAVIEAIPEIQVQMKKPDINLRIEIRKDAAYLSYETIRGAGGLPVGTSGRGMLMLSGGIDSPVAGYLAMKRGVEVEAVHFASPPYTSEQALQKAKDLAEKLVPYVGTIQFIEVPFTEIQEEIKRVVPQGYLMTITRRLMLRLTDAIREMRKGLVIINGESLAQVASQTLQSMVAINEVTSTPIIRPVVSMDKTEIIEIAEKIDTFELAIQPFEDCCTIFAPPQPKTRPRLDKAQEYEARLDLEGLMARALEGLKITEISAETAKDKQEDEFADFL | not soluble
3 | MGSDKIHHHHHHASCSGGDKSKAPVVSTADIENAAEVIKYYNTSLGVLKDMVKEKDVNAVLDYMEQKGKTPALSAIVPPAVVSKDSAIVLNPGNCFNEETRRNLKQNYTGLFQARTEFYANFDTYLSYLKKKDVTNAKKLLDVNYQLSTQMSEYKQNIFDILSPFTEQAELVLLVDNPLKAQIMSVRKMSSTMQSILNLYARKHRMDGPRIDLKVAELTKQLDAAKKLPVVNGHEGEMKSYQAFLSQVETFIKQVKKVREKGEYSDADYDMLTSAFETSII | not soluble
4 | MGSDKIHHHHHHMIVYNSGAALEKARVRVGLVGTGYAAKFRAEALLHDERSQLIAVVGHTAEKTEAFVREYQIKALSSWQELVEREDVDLVVICTVNRDHGAIARAALTNGKHVIIEYPLSLDVVEADELIALAKAQKKLLHVEHLELLGGLHQALKQNLAKIGEVFYARYSTINPQNPAPRKWTYNHELFGFPLIGALSRLHRLIDLFGTVFTVNCHQRYWEIEPEYYQTCFCTSELCFNSGLLAQVVYGKGESIWQSERKFEVHGEKGGLVFDGDTGIFIQPEETTPIEVGPRRGLFAKDTAMVLDHLFDGTPLYVTPEQSLYTLKVADAAQRAAQTGFTMFM | not soluble
5 | MVATAKYGTPVIDGEIDEIWNTTEEIETKAVAMGSLDKNATAKVRVLWDENYLYVLAIVKDPVLNKDNSNPWEQDSVEIFIDENNHKTGYYEDDDAQFRVNYMNEQTFGTGGSPARFKTAVKLIEGGYIVEAAIKWKTIKPTPNTVIGFNIQVNDANEKGQRVGIISWSDPTNNSWRDPSKFGNLRLIK | soluble
6 | MSLETMNNKYKIMQLSDLHFGQDLGRCDDTNTSSGEHVDEFKCSSDLKTLKFIEKSIQEENPDLIVITGDLIDIHRSIDYKSIMLKSLQPILAHKIKFIYTFGDEIKDQLTKISIIQFLSTLPNCLNTVPQEVIEGITNYNFQIKQKSSTPSSSSSISVTVLDSEDHLIDDSQMTYLYRINNELLNDYKLLFFHYPLPQFRPKGKFKIVGSYNEKHELDRKTKLKFHDDIISCGYNVISVGHEHENDACLLSSSSSSSNSDKSIWLCYNSITGDSGITKLDKQYVRKMRLFEIDFEKNRILSWKRKEIDNQPFDYQLIYEKPQKEGHHHHHH | soluble
7 | MNKEQLQQMRQAPGFVGALDQSGGSTPKALKAYGIQPDAYQSEEEMFDLIHQMRTRMITSPAFATGKIIGVILFERTMRGKIEGMPTADFLWEKRHIVPFLKVDKGLQDEANGVQLMKPFPELGKLCEEAVGYHVFGTKMRSVIKQANEQGIRDIVEQQFQWGKEILSHGLVPILEPEVDIHCPEKAKAEEILKRELLAQLDKMTEPVMLKITIPTVDNFYKEIIEHPMMLRVVALSGGYSREQANELLSRNHGVIASFSRALVEGLSARQTDAEFNAMLEASIEDVYQASIK | soluble
8 | MEFFGETWRRELAAEFEKPYFKQLMSFVADERSRHTVYPPADQVYSWTEMCDIQDVKVVILGQDPYHGPNQAHGLCFSVQKPVPPPPSLVNIYKELCTDIDGFKHPGHGDLSGWAKQGVLLLNAVLTVRAHQANSHKDRGWETFTDAVIKWLSVNREGVVFLLWGSYAHKKGATIDRKRHHVLQAVHPSPLSAHRGFLGCKHFSKANGLLKLSGTEPINWRAL | soluble
9 | MTIKLINIGFGNIISANRMISIVSPESAPIKRMIQDARDRGMLIDATYGRRTRAVVVMDSDHIILSAVQPETVAHRLSVKEEIMDEGQG | not soluble
10 | DLREVLDFMLKDEVSKLRKLLVKIKTKKIAEVEYENVVKALKLFKDNYEINEYLMDENTKEFLIKRNILFLNPVEEILKPQSYLVWNAIKRVLQNINDF | soluble
11 | GSIPGLERALQQYTLEPSEKPFDLKSVPLATAPLAEQRTESTPVTAAKQPEKVAATRQEIFQEQLAAVPEFQGLGPLFKSSPEPVALTESETEYVIRCTKHTFTDHMVFQFDCTNTLNDQTLENVTVQMEPSEAYEVLCYVPARSLPYNQPGTCYTLVALPKEDPTAVACTFSCVMKFTVKDCDPTTGEADDEGYEDEYVLEDLEVTIADHIQKVMKLNFEAAWDEVGDEFQKEETFTLSTIKTLEEAVGNIVKFLGMHPCERSDKVPDNKNTHTLLLAGVFRGGHDILVRSRLLLLDTVTMQVTARSSEELPVDIVLASVG | soluble
12 | MSLIVSTIASHSSLQILLGAKKEGFKTRLYVSPKRRPFYSSLPIVDDLVVAEEMTSILNDDGIVVPHGSFVAYLGIEAIEKAKARFFGNRRFLKWETTFELQDKALEGAGIPRVEVVEPEDAKPDELYFVRIEGPRGGSGHFIVEGSELEERLSTLEEPYRVERFIPGVYLYVHFFYSPILERLELLGVDERVLIADGNARWPVKPLPYTIVGNRAIALRESLLPQLYDYGLAFVRTMRELEPPGVIGPFALHFAYDGSFKAIGIASRIDGGSNADHWYSELYWGERLSMGRRIARELRLAEEEDRLEEVVTEGHHHHHH | soluble
13 | MKKFDGVIFDMDGLLFDTELIYYTSTQKVADAMGLPYSKEVYLDYVGISDEEVQENYRRIYASYGHDTVEEFIRRSYDDTLQEFRSGNVPLKPGVVEFLDFLDDQKIPRLVASSNVRPAIEMLLSHAGIQDRFVGIVSAEDVKRAKPDPEIFQKARQLLGTEAPKTLIFEDSFHGVSAAHSAGIPVIMVPDLLQPTEVIQEKTLHVLESLHQAPHYLK | not soluble
14 | MSLALLNVDKLSVHFGDESAPFRAVDRISYSVKQGEVVGIVGESGSGKSVSSLAIMGLIDYPGRVMAEKLEFNGQDLQRISEKERRNLVGAEVAMIFQDPMTSLNPCYTVGFQIMEAIKVHQGGNKSTRRQRAIDLLNQVGIPDPASRLDVYPHQLSGGMSQRVMIAMAIACRPKLLIADEPTTALDVTIQAQIIELLLELQQKENMALVLITHDLALVAEAAHKIIVMYAGQVVETGDAHAIFHAPRHPYTQALLRALPEFAQEGHHHHHH | not soluble
15 | GIDPFTMAAYTIVKEEESPIAPHRLFKALVLERHQVLVKAQPHVFKSGEIIEGDGGVGTVTKITFVDGHPLTYMLHKFDEIDAANFYCKYTLFEGDVLRDNIEKVVYEVKLEAVGGGSKGKITVTYHPKPGCTVNEEEVKIGEKKAYEFYKQVEEYLAANPEVFA | soluble
16 | MKIVLIGAGNVATHLGIALQKAGCLILQVYSRTEESASALAARLSVDYTIVPDEIRRDADLYIVALKDAVLRQLAPVLVKGREQALFVHTAGSMSMDLWKGLVKRYGVLYPMQTFSKQREVDFNTVPFFIEASAPAEVELLRMVAVRLSPKVYEVTSGQRRYLHLAAVFACNFANHMYALSSHILEKQGIPFEVMLPLIDETAGKVHELSPTQAQTGPAVRYDENVISKHLEMLADEESLQELYEKISKSIHNLPLSVIQANKEGKNS | not soluble
17 | MYVLIGGAGLIGQQLARQVLDQGHTVAVIDQDPQVCKMVRDRLGAMAFEGSAVNTDILLEAGICRADAVAAVLRQDALNLALVTLACHYGVSRIISRISQQDFIEPMRLAGAHHIISTVDLVVSTMVNAIECPQVESMLHFEQGQIEVFKLTLDSQSPVIGRSVAAIAQDRNFPSSSLIIGYQSHPQADLVIPSGNTVLEANATVLLATKPGLVQSLVNFLMPSLFSPLEHHHHHH | not soluble
18 | MYTAEQKARIKWACRRGMLELDVVIMPFFEECFDSLTESEQDDFVALLESDDPDLFAWVMGHGRCENLGLAAMVDKIVAHNLSKVRLEHHHHHH | soluble
19 | MTNEKGLDKGYELVAKMHEVFGHPVTNTPTKLTEERAKIRASFMQEELEEFLEATTVEDQYDALIDLIYFAFGTFAEMGVRPDKGFEIVNNANMAKLFPDGKPRFREGDGKILKPEGWQAPEPQLRAEIERQRQEAEKNC | soluble
20 | MSLSLDFSDNTFQPLAARMRPENLAQYIGQQHLLAAGKPLPRAIEAGHLHSMILWGPPGTGKTTLAEVIARYANADVERISAVTSGVKEIREAIERARQNRNAGRRTILFVDEVHRFNKSQQDAFLPHIEDGTITFIGATTENPSFELNSALLSRARVYLLKSLSTEDIEQVLTQAMEDKTRGYGGQDIVLPDETRRAIAELVNGDARRALNTLEMMADMAEVDDSGKRVLKPELLTEIAGERSARFDNKGDRFYDLISALHKSVRGSAPDAALYWYARIITAGGDPLYVARRCLAIASEDVGNADPRAMQVAIAAWDCFTRVGPAEGERAIAQAIVYLACAPKSNAVYTAFKAALADARERPDYDVPVHLRNAPTKLMKEMGYGQEYRYAHDEANAYAAGEVYFPPEIAQTRYYFPTNRGLEGKIGEKLAWLAEQDQNEGHHHHHH | soluble
21 | MDELNRGHAGRTVIRNIEAACEMDPEKRVVISKTDQGSEANMPGHWTGCARPTRDPFVPFVAGRGESVAVRYNSRFGRRFDDQSVNGQPDPSLAYVFLGHELIHASRTLQGTQYRVSRGRPDVDEDSGAAEEELRTVGIGQYEDEYPSENAIRREHGLAPRTSYSGNTGTNLREPPERNSQYTEARLRSLNARRWSDM | not soluble
22 | MGSDKIHHHHHHMNILLVYKEDYPWDVRVEKIALSLISRGHDVTIVARNRQCSKTTETVNGIEIVRLPALFKPDGLLNKLLNLPVWFNPFWIWTLRSALRGKPGALIIVRDLPLVKTALLVARGARAKIMLDMAEVYPYMYESGRQFSKGTNFESMIKSPALAARYEAKVLPKIDHTLVMIEESRDRLLQMGLSPQRVSIVSNTPPLDKFSGNTHQHQGRKLRLVYVGFLTKLRGLDLLIEAAYEYVKLGNEPSSLKIDIVGKGAEREHLIALVRDLKLEESVTIHGWLDHQRVDELMAQANVGALTYRVCPHWNHTIPNKIFDYMLAGLPVLATEVTPINRIINETKSGLVCRDLDIRDIAEKLQTLRCPELRSTLGNNGVNAVRAKYNWANDEQRLHAAVNSIAP | not soluble
23 | GPGSMVTPEQAALIEGAFRSMDRDGTGLVRLEDIFRVFDDSRHPRVRDGELAPAATRDMLMHQFGATAQAHGGVSFDVFMRFHERMAEDAAVAKVNDKELFLTDTIIGVWRLGTLLQPTLIRPLFPVNVRPSGLYATQYMSLVWVDEVAGPGSFVVHVVRDVVRPIFSRGDLPPQLRGMFAYPTELAGMKIIEERLQIATQRWLDFVWEYEEGKHAAVPGIISARVDPDTLPQYLRDMIVEHDVAKAIPSLFFVPTSVAVNPMYKRSSEEYGYGVPEEVKRMSRWKDLTYSGQACGLIYHGRVGKFTRERLNAPVQDVASAMNI | not soluble
